Biological target: T1, MLH1 p.Arg659Leu (human), P40692
T1 chain: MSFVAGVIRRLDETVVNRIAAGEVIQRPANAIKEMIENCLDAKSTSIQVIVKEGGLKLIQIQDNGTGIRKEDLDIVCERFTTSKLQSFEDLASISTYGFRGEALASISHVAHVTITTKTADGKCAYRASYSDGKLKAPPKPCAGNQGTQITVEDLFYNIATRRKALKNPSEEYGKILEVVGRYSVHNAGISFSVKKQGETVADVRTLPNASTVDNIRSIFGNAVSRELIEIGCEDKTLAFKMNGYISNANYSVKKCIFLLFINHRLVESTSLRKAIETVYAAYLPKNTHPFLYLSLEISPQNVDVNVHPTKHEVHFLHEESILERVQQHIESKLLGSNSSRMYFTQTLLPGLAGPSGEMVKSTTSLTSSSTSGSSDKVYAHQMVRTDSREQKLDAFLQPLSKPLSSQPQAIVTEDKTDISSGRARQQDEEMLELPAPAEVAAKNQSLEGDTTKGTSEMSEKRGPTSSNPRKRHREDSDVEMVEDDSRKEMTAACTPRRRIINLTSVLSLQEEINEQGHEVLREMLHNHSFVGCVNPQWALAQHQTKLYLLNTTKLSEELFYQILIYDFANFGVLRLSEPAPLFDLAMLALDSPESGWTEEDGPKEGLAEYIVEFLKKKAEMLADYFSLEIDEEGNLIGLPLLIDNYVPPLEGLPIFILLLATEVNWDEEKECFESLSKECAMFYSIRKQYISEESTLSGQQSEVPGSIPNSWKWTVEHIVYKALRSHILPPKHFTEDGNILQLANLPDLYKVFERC
Assay: co-IP
Conditions: remark: other sources report otherwise

B1: PMS2, P54278 1-862 (natural protein)
chain: MERAESSSTEPAKAIKPIDRKSVHQICSGQVVLSLSTAVKELVENSLDAGATNIDLKLKDYGVDLIEVSDNGCGVEEENFEGLTLKHHTSKIQEFADLTQVETFGFRGEALSSLCALSDVTISTCHASAKVGTRLMFDHNGKIIQKTPYPRPRGTTVSVQQLFSTLPVRHKEFQRNIKKEYAKMVQVLHAYCIISAGIRVSCTNQLGQGKRQPVVCTGGSPSIKENIGSVFGQKQLQSLIPFVQLPPSDSVCEEYGLSCSDALHNLFYISGFISQCTHGVGRSSTDRQFFFINRRPCDPAKVCRLVNEVYHMYNRHQYPFVVLNISVDSECVDINVTPDKRQILLQEEKLLLAVLKTSLIGMFDSDVNKLNVSQQPLLDVEGNLIKMHAADLEKPMVEKQDQSPSLRTGEEKKDVSISRLREAFSLRHTTENKPHSPKTPEPRRSPLGQKRGMLSSSTSGAISDKGVLRPQKEAVSSSHGPSDPTDRAEVEKDSGHGSTSVDSEGFSIPDTGSHCSSEYAASSPGDRGSQEHVDSQEKAPKTDDSFSDVDCHSNQEDTGCKFRVLPQPTNLATPNTKRFKKEEILSSSDICQKLVNTQDMSASQVDVAVKINKKVVPLDFSMSSLAKRIKQLHHEAQQSEGEQNYRKFRAKICPGENQAAEDELRKEISKTMFAEMEIIGQFNLGFIITKLNEDIFIVDQHATDEKYNFEMLQQHTVLQGQRLIAPQTLNLTAVNEAVLIENLEIFRKNGFDFVIDENAPVTERAKLISLPTSKNWTFGPQDVDELIFMLSDSPGVMCRPSRVKQMFASRACRKSVMIGTALNTSEMKKLITHMGEMDHPWNCPHGRPTMRHIANLGVISQN
co-precipitated PMS2 in relation to wild-type (% of wild-type): 77

— publication PMC2908215
